Our source for the Kd values is PMC7918451.

Data set [1] addresses T1, Interleukin-6 (IL-6) ((aptamer stated to be specific to mouse IL-6)) (UniProt P08505).
T1 sequence: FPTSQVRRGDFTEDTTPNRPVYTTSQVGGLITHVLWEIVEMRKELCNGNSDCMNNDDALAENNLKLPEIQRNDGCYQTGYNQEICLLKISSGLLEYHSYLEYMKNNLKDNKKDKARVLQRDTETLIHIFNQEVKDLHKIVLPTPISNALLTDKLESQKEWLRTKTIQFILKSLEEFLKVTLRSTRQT
Nature of the data set: GFET (graphene field-effect transistor), Hill-Langmuir fit, n = 0.3. Particulars: pH ~3.64, 2 mM MgCl2; 5' amine coupled to 1-pyrenebutyric acid NHS ester (5' pyrene); 0.01x PBS with 2 mM MgCl2, pH ~7.4 (or adjusted to ~3.64), 10 min exposure per concentration, temperature not stated; aptamer immobilized on graphene.

In data set [2] the target is T1, Interleukin-6 (IL-6) ((aptamer stated to be specific to mouse IL-6)). As to the kind of experiment: manufacturer value. Particulars: 5' amine; 0.01x PBS with 2 mM MgCl2, pH ~7.4 (or adjusted to ~3.64), 10 min exposure per concentration, temperature not stated; aptamer immobilized on graphene; cited from earlier work.

The term Kd denotes the concentration at which binding is half-saturated. Substance “IL-6 aptamer ATW0077 (Base Pair Biotechnologies), pyrene-tagged (PTDA)” yielded a Kd in data set [1] of 3.4 nM.
“IL-6 aptamer ATW0077, as supplied (manufacturer Kd)”: the Kd in data set [2] is 5.4 nM.
